In patent US5458874A, “Method of increasing monocyte chemotaxis with CAP37 and monocyte chemotactic portions thereof” (Emory University, priority 1992, dated 1995):
“Also recorded” adds a separate entry of the source.

Key:
human monocytes = assay: Monocyte chemotaxis, modified Boyden chamber technique; type: cell-based; conditions: for Distance migrated in μm: chemoattractant conc. 10^-9 M
Description: (§1) Chemotaxis was measured using the modified Boyden chamber technique (Snyderman et al.). The leading front method (Zigmond et al.) was used to assess migration of monocytes and lymphocytes through a 8 μm filter (Millipore Corporation, Bedford, Mass.). PMN chemotaxis was measured using a 3 μm filter (Millipore). The purified CAP37 protein (Example 1) used in chemotaxis assays were endotoxin-free as determined by the Limulus Amoebocyte Lysate Assay (Whittaker Bioproducts, Inc., Walkersville, Md.). The dilutions of CAP37 and N-formyl-methionyl-leucyl-phenylalanine (FMLP) were made in Geys buffer (Gibco) containing 2% endotoxin-free bovine serum albumin (BSA). Geys buffer containing 2% BSA served as the negative control, and a […] solution of FMLP as the positive control.
(§2) The chambers were incubated in a humidified atmosphere (6.2% CO2) for 2 hours when testing monocytes and lymphocytes, and for 30 minutes when testing PMNs. The filters were then removed and processed as previously described (Snyderman et al.). The cells were viewed using oil immersion and the distance the cells had migrated into the filter was determined over five different fields on the same slide (Zigmond et al.). Triplicate assays were performed for each experimental point.
The three peptides were tested for chemotactic activity towards monocytes using the modified Boyden Chamber technique described in Example 2. The monocyte chemotactic activity of each peptide fragment at concentrations ranging from 10^-7 to 10^-13 M was compared with Geys buffer (negative control), FMLP 10^-8 M (positive control) and purified CAP37 10^-9 M (positive control). […] The effect of peptide 1 on monocyte chemotaxis is illustrated in Table 2 while the effect of peptide 3 on monocyte chemotaxis is illustrated in Table 3.

PMN = PMN chemotaxis, modified Boyden chamber technique; type: cell-based, human; conditions: range employed in these experiments
Description: as §1, §2

Re LPS from Salmonella = assay: Neutralization of LPS activity, limulus amebocyte lysate (LAL) assay, Re LPS; type: biochemical
Description: Further, the neutralization of LPS activity, as assayed by the limulus amebocyte lysate (LAL) assay, by CAP37 was measured. CAP37 was diluted to the desired concentrations (from 6.2 ng/ml to 500 ng/ml) in geys buffered saline pH 7 (GIBCO). To this wild type LPS (RIBI IMMUNOCHEM) or Re LPS from Salmonella (David Morrison, Kansas Medical Center) was added so that the final concentrations were 0.1, 0.5, 1.0 and 2.0 ng/ml LPS. The tubes were incubated at 37° C. for between 30 to 60 minutes and then assayed in the chromogenic LAL assay, using polymyxin E as a control.
As discussed in Example 11, peptides can be screened for lipopolysaccharide neutralizing capacity using the LAL assay also. The CAP37 peptide was diluted to the desired concentrations (from 125 ng/ml to 4000 ng/ml) in geys buffered saline pH 7 (GIBCO). To this is added the wild type LPS (RIBI IMMUNOCHEM) or Re LPS from Salmonella (David Morrison, Kansas Medical Center) so that the final concentration is 0.1, 0.5, and 1.0 ng/ml LPS. The tubes were incubated at 37° C. for between 30 to 60 minutes and then assayed in the chromogenic LAL assay.

Salmonella SH7518 = assay: Bactericidal assay; type: cell-based, Salmonella typhimurium; conditions: Salmonella SH7518
Description: An overnight culture of Salmonella typhimurium (or other microorganism of interest, if desired) is set up by inoculating one colony in 5 ml of LB Broth (LB Broth consists of 10 g BACTO tryptone (DIFCO), 5 g BACFO yeast (DIFCO) and 5 g NaCl made up to 1 L with endotoxin free water; add 15 g of BACTO agar (DIFCO) to this broth to make LB agar (autoclave). The culture is incubated at 37° C. with rotation. 100 μl of this overnight culture is then transferred to 5 ml of fresh LB Broth and incubated at 37° C. with rotation for 2 hours. Four ml of this log phase culture is then transferred to a sterile cuvette and the optical density is read at […]. Dilutions of the microorganism are then made in tryptone saline (5 g BAOTO tryptone (DIFCO) and 5 g NaCl made up to 1 L with endotoxin free water, pH 5.5) to give a final concentration of 5×10^3 organisms/ml (an O.D. reading of 0.25 at 520 mm is equivalent to 1×10^8 organisms/ml). The microorganisms are placed at 4° C. until ready to be used.
The stock solutions of peptides are stored at -20° C. at concentrations of 1 mg/ml of endotoxin-free water. The peptide is diluted out in tryptone saline to the desired concentration. 100 μl of the peptide is added to each well of the microtitre plate (Corning) and then 100 μl of the bacterial suspension (well vortexed) is added. Each assay point is set up in triplicate. 100 μl of a control, consisting of bacteria and tryptone saline (T=0) in the absence of peptide is plated out on LB agar plates. The microliter plate is then incubated at 37° C. for 1 hour. At the end of the incubation time, 100 μl of each sample is plated out on LB agar plates. The T=60 control (consisting of bacteria and tryptone saline in the absence of peptide) is plated out last. The plates are incubated overnight, and the number of colony forming units (CFU) are determined.
The % killed is determined as follows: [formula]

P. mirabilis Re45 = conditions: (Shafer, 1986); cited from earlier work

B1: CAP37: granule-associated cationic protein (mol. wt. 37,000 daltons) from human PMN, 222 amino acid mature protein (protein)
chain: IVGGRKARPRQFPFLASIQNQGRHFCGGALIHARFVMTAASCFQSQNPGVSTVVLGAYDLRRRERQSRQTFSISSMSENGYDPQQNLNDLMLLQLDREANLTSSVTILPLPLQNATVEAGTRCQVAGWGSQRSGGRLSRFPRFVNVTVTPEDQCRPNNVCTGVLTRRGGICNGDGGTPLVCEGLAHGVASFSLGPCGRGPDFFTRVALFRDWIDGVLNNPGP
Distance migrated in μm (human monocytes; Table 2): 78.4 μm | Distance migrated in μm (human monocytes; Table 3): 73.6 μm | monocyte chemotactic activity (in words) (human monocytes; modified Boyden chamber): as effective as FMLP; also recorded: strong chemotactic properties | effect on PMN chemotaxis (PMN): did not have any effect | neutralization of Re LPS activity (LAL assay) (Re LPS from Salmonella): significantly neutralized LPS activity | % survival with CAP 37 (Salmonella SH7518): 10.9% | % survival with CAP 37 (P. mirabilis Re45): 100%
